Source: patent publication US20060251644A1 (TANOX, published 2006)

Biological target: T1, recombinant human IgE, SE44 (human, UniProt P01854-1 1-428)
T1 construct: also called monoclonal human IgE (SE44); biotinylated SE44
Test: ELISA titration on plate-coated SE44 (human IgE); Fab detected with biotin-sheep anti-human Fd and Neutra-avidin-AP (Example 6)
Experimental: Coating solution was removed and the plates were blocked with 200 uL/well 3% BSA/PBS for 1 hour at 37° C.
The plates were washed 4× with PBS/0.1% TWEEN® (PBST). 50 uL/well Fab (from 15 mL periplasmic prep) was added starting with a dilution of 1:2 and diluting 3 fold serially in 0.5% BSA/PBS and 0.05% TWEEN®20. Plates were incubated for 2 hours at room temperature.

T1 sequence (P01854 other isoform, or with tags, fused parts or gaps): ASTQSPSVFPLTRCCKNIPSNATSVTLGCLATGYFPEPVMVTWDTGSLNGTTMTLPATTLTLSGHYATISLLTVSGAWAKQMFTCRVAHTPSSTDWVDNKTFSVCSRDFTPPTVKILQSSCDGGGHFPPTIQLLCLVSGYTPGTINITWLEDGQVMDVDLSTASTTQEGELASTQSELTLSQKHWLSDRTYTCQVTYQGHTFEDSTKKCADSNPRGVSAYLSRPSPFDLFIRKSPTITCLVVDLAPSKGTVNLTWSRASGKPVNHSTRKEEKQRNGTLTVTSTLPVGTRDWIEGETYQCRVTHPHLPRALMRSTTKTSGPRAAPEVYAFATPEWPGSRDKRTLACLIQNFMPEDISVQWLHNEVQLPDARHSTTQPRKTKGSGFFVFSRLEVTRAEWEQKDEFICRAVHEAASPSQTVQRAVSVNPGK

B1: humanized Fab clone 136 (Fab, V domains shown)
VH: QVQLVQSGAEVMKPGSSVKVSCKASGYTFSMYWLEWVRQAPGHGLEWMGEISPGTFTTNYNEKFKARVTFTADTSTSTAYMELSSLRSEDTAVYYCARFSHFSGSNYDYFDYWGQGTLVTVSS
VL: EIVMTQSPATLSVSPGERATLSCRASQSIGTNIHWYQQKPGQAPRLLIYYASESISGIPARFSGSGSGTEFTLTISSLQSEDFAVYYCQQSDSWPTTFGGGTKVEIK
notes: Retains 5 murine heavy chain framework residues; 100% human light chain framework; also called Clone ID #136; Humanized clone 136
EC50 (read off the curve): ~0.03 mg/L
